Results reported in IntAct's records for PubMed 31515488.

B1: Ligand of Numb protein X 2 (Homo sapiens), Q8N448 (parent)
chain: MGTTSDEMVSVEQTSSSSLNPLCFECGQQHWTRENHLYNYQNEVDDDLVCHICLQPLLQPLDTPCGHTFCYKCLRNFLQEKDFCPLDRKRLHFKLCKKSSILVHKLLDKLLVLCPFSSVCKDVMQRCDLEAHLKNRCPGASHRRVALERRKTSRTQAEIENENGPTLLDPAGTLSPEADCLGTGAVPVERHLTSASLSTWSEEPGLDNPAFEESAGADTTQQPLSLPEGEITTIEIHRSNPYIQLGISIVGGNETPLINIVIQEVYRDGVIARDGRLLAGDQILQVNNYNISNVSHNYARAVLSQPCNTLHLTVLRERRFGNRAHNHSDSNSPREEIFQVALHKRDSGEQLGIKLVRRTDEPGVFILDLLEGGLAAQDGRLSSNDRVLAINGHDLKYGTPELAAQIIQASGERVNLTIARPGKPQPGNTIREAGNHSSSSQHHTPPPYYSRPSSHKDLTQCVTCQEKHITVKKEPHESLGMTVAGGRGSKSGELPIFVTSVPPHGCLARDGRIKRGDVLLNINGIDLTNLSHSEAVAMLKASAASPAVALKALEVQIVEEATQNAEEQPSTFSENEYDASWSPSWVMWLGLPSTLHSCHDIVLRRSYLGSWGFSIVGGYEENHTNQPFFIKTIVLGTPAYYDGRLKCGDMIVAVNGLSTVGMSHSALVPMLKEQRNKVTLTVICWPGSLV
partner: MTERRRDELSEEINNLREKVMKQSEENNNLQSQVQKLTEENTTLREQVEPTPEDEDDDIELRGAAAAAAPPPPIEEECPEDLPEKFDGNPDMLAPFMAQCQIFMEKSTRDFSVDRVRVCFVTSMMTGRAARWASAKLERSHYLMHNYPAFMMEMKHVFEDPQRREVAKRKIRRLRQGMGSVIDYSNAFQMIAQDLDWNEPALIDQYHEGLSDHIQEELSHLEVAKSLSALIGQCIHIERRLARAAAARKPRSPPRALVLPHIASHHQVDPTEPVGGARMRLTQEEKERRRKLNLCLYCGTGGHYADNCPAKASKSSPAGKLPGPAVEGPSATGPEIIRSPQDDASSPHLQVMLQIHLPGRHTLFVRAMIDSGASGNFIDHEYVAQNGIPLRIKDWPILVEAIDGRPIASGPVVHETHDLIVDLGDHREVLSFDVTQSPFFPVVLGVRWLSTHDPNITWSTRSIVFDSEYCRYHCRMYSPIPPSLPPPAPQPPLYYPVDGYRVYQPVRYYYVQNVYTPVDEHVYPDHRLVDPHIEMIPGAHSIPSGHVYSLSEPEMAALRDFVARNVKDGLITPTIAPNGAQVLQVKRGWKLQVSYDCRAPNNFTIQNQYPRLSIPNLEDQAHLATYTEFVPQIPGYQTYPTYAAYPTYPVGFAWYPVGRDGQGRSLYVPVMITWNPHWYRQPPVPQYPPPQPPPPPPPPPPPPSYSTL
B2: Transmembrane protein 187 (Homo sapiens), Q14656 (parent)
chain: MNPEWGQAFVHVAVAGGLCAVAVFTGIFDSVSVQVGYEHYAEAPVAGLPAFLAMPFNSLVNMAYTLLGLSWLHRGGAMGLGPRYLKDVFAAMALLYGPVQWLRLWTQWRRAAVLDQWLTLPIFAWPVAWCLYLDRGWRPWLFLSLECVSLASYGLALLHPQGFEVALGAHVVAAVGQALRTHRHYGSTTSATYLALGVLSCLGFVVLKLCDHQLARWRLFQCLTGHFWSKVCDVLQFHFAFLFLTHFNTHPRFHPSGGKTR
partner: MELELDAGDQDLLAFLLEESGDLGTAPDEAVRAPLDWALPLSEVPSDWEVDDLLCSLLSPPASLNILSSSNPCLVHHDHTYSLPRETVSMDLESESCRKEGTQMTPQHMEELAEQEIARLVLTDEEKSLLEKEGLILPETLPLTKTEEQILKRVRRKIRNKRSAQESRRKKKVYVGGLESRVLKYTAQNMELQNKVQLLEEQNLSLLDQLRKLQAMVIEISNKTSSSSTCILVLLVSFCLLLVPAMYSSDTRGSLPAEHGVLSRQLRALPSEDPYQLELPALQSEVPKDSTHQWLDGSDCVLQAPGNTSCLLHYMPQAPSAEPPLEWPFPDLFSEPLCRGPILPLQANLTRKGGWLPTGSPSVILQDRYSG
B3: Trichoplein keratin filament-binding protein (Homo sapiens), Q9BT92 (parent)
chain: MALPTLPSYWCSQQRLNQQLARQREQEARLRQQWEQNSRYFRMSDICSSKQAEWSSKTSYQRSMHAYQREKMKEEKRRSLEARREKLRQLMQEEQDLLARELEELRLSMNLQERRIREQHGKLKSAKEEQRKLIAEQLLYEHWKKNNPKLREMELDLHQKHVVNSWEMQKEEKKQQEATAEQENKRYENEYERARREALERMKAEEERRQLEDKLQAEALLQQMEELKLKEVEATKLKKEQENLLKQRWELERLEEERKQMEAFRQKAELGRFLRHQYNAQLSRRTQQIQEELEADRRILQALLEKEDESQRLHLARREQVMADVAWMKQAIEEQLQLERAREAELQMLLREEAKEMWEKREAEWARERSARDRLMSEVLTGRQQQIQEKIEQNRRAQEESLKHREQLIRNLEEVRELARREKEESEKLKSARKQELEAQVAERRLQAWEADQQEEEEEEEARRVEQLSDALLQQEAETMAEQGYRPKPYGHPKIAWN
partner: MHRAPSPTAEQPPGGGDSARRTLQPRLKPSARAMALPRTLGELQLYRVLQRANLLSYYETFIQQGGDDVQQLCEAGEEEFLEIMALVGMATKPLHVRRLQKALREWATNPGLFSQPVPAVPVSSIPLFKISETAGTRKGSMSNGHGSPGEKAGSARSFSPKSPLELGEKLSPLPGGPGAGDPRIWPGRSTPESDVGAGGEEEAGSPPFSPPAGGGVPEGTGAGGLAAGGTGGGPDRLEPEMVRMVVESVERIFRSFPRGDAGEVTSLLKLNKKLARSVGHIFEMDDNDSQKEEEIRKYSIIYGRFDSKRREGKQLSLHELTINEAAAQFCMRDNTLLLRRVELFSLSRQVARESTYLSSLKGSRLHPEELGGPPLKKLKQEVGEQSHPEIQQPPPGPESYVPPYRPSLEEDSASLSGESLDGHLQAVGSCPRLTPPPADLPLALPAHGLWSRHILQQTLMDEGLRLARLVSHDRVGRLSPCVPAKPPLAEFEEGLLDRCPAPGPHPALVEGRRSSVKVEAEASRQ
B4: Keratin-associated protein 5-9 (Homo sapiens), P26371 (parent)
chain: MGCCGCSGGCGSSCGGCDSSCGSCGSGCRGCGPSCCAPVYCCKPVCCCVPACSCSSCGKRGCGSCGGSKGGCGSCGCSQCSCCKPCCCSSGCGSSCCQCSCCKPYCSQCSCCKPCCSSSGRGSSCCQSSCCKPCCSSSGCGSSCCQSSCCKPCCSQSRCCVPVCYQCKI
partner: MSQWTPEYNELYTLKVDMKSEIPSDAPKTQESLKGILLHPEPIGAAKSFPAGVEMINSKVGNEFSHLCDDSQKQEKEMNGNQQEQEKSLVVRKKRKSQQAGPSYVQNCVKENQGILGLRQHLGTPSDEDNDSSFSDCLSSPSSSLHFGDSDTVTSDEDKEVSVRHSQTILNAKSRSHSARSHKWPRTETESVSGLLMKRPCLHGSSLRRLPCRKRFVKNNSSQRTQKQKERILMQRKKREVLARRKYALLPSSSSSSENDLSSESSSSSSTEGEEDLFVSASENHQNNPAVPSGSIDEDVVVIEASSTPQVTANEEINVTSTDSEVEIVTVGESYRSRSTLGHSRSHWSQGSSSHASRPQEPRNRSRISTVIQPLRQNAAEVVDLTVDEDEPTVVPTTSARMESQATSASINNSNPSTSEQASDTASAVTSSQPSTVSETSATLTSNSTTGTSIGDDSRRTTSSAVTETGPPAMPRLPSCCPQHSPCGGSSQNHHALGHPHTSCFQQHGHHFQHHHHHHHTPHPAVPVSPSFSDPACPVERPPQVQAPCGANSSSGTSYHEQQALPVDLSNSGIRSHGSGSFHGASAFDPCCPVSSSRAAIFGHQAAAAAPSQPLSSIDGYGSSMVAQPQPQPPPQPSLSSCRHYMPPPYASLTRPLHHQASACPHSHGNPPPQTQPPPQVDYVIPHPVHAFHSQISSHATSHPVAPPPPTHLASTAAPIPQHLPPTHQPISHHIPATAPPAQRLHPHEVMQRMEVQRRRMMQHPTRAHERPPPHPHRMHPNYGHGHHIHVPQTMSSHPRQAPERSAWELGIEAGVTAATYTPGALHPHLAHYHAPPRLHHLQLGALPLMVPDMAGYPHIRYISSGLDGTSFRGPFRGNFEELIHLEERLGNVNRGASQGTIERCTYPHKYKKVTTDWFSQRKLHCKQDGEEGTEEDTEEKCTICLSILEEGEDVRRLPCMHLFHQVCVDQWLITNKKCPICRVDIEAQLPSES

Variants of: B1
Settings: with peg10_human PEG10, Q86TG7

| Variant | effect of a mutation on the interaction |
| --- | --- |
| T183I | with no effect |
| V145I | with no effect |

Variants of: B2
Settings: with creb3_human CREB3, O43889

| Variant | effect of a mutation on the interaction |
| --- | --- |
| R138Q | with no effect |

Variants of: B3
Settings: with nab2_human NAB2, Q15742

| Variant | effect of a mutation on the interaction |
| --- | --- |
| K127R | with no effect |

Variants of: B4
Settings: with rn111_human RNF111, Q6ZNA4

| Variant | effect of a mutation on the interaction |
| --- | --- |
| Y40C | with no effect |
